Numbering of substitutions follows the chain as printed.

The text below walks through data of patent US20100266614A1 (AstraZeneca / MedImmune, published 2010).

Sequences and labels used below:
B1: clone 3 (PFFF) (Fab, V domains shown)
VH: QVTLRESGPALVKPTQTLTLTCTFSGFSLSTPGMSVGWIRQPPGKALEWLADIWWDDKKDYNPSLKSRLTISKDTSKNQVVLKVTNMDPADTATYYCARSMITNFYFDVWGQGTTVTVSS
VL: DIQMTQSPSTLSASVGDRVTITCSASSSVGYMHWYQQKPGKAPKLLIYDTFKLASGVPSRFSGSGSGTEFTLTISSLQPDDFATYYCFQGSFYPFTFGGGTKVEIK
notes: also called 3 (n = 3)
B2: clone 2 (AFFG) (Fab, V domains shown)
VH: B1 VH with P32A
VL: B1 VL with F92G
B3: clone 22 (AFFF) (Fab, V domains shown)
VH: B1 VH with P32A
VL: B1 VL
notes: also called 4D2-7
B4: clone 23 (AFFY) (Fab, V domains shown)
VH: B1 VH with P32A
VL: B1 VL with F92Y
B5: clone 1 (AFSF) (Fab, V domains shown)
VH: B1 VH with P32A
VL: B1 VL with F51S
B6: clone 17 (PWSW) (antibody, V domains shown)
VH: B1 VH with F105W
VL: B1 VL with F51S, F92W
B7: IX-493 (SWSG), basic or reference antibody (Fab, V domains shown)
VH: B1 VH with P32S, F105W
VL: B1 VL with F51S, F92G
notes: also called basic antibody
B8: 16 (antibody, V domains shown)
VH: B1 VH with P32A, F105W
VL: B1 VL with F51S, F92G
notes: also called AWSG
B9: clone 4 (PFFY) (antibody, V domains shown)
VH: B1 VH
VL: B1 VL with F92Y
notes: also called 4 (n = 3)
B10: clone 6 (PFYF) (antibody, V domains shown)
VH: B1 VH
VL: B1 VL with F51Y
B11: clone 18 (SFFG) (antibody, V domains shown)
VH: B1 VH with P32S
VL: B1 VL with F92G
notes: also called 18 (n = 2)
B12: clone 16 (PFSG) (antibody, V domains shown)
VH: B1 VH
VL: B1 VL with F51S, F92G
notes: also called 16 (n = 2)
B13: clone 10 (PFSF) (antibody, V domains shown)
VH: B1 VH
VL: B1 VL with F51S
B14: clone 19 (SFSW) (antibody, V domains shown)
VH: B1 VH with P32S
VL: B1 VL with F51S, F92W
B15: clone 5 (PFFW) (antibody, V domains shown)
VH: B1 VH
VL: B1 VL with F92W
notes: also called 5 (n = 3)
B16: clone 15 (AFSG) (antibody, V domains shown)
VH: B1 VH with P32A
VL: B1 VL with F51S, F92G
notes: also called 15 (n = 2)
B17: clone 7 (PFFG) (antibody, V domains shown)
VH: B1 VH
VL: B1 VL with F92G
notes: also called 7 (n = 4)
B18: clone 9 (PFSW) (antibody, V domains shown)
VH: B1 VH
VL: B1 VL with F51S, F92W
notes: also called 9 (n = 2)
B19: clone 13 (SFFF) (antibody, V domains shown)
VH: B1 VH with P32S
VL: B1 VL
notes: also called 13 (n = 3)
B20: clone 21 (SWYF) (antibody, V domains shown)
VH: B1 VH with P32S, F105W
VL: B1 VL with F51Y
B21: clone 14 (SFFW) (antibody, V domains shown)
VH: B1 VH with P32S
VL: B1 VL with F92W
B22: clone 11 (PWFW) (antibody, V domains shown)
VH: B1 VH with F105W
VL: B1 VL with F92W
B23: clone 12 (PWFF) (antibody, V domains shown)
VH: B1 VH with F105W
VL: B1 VL
notes: also called 12 (n = 2)
B24: clone 20 (SFSF) (antibody, V domains shown)
VH: B1 VH with P32S
VL: B1 VL with F51S

In one test the target is T1, RSV F protein (C-terminal truncated F protein secreted from a recombinant baculovirus) (respiratory syncytial virus (RSV), UniProt P03420 26-524).
T1 construct: also called F antigen; RSV F antigen
T1 sequence (P03420 26-109, chain 1 of 2): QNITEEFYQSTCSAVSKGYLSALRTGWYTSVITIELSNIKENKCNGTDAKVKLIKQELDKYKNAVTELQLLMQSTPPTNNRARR
T1 sequence (P03420 137-524, chain 2 of 2): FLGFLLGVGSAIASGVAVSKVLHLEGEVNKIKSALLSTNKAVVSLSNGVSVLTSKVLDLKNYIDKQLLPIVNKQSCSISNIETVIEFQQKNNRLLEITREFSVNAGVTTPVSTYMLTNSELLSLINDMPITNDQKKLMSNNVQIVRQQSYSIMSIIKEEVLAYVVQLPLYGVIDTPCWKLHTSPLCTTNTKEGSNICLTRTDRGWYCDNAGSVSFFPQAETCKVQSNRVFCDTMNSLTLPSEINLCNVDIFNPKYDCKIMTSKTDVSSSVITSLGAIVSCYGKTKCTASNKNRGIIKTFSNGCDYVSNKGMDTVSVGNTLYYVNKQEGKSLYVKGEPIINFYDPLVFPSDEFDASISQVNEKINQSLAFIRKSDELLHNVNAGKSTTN
Nature of the test: SPR (BIAcore), from the kinetic constants of Table 4. (In general: Surface plasmon resonance follows binding to a sensor surface in real time, without labels.)
The term Kd denotes the free concentration of one partner at which half of the binding sites on the other are occupied at equilibrium, for simple one-to-one binding. For the molecule B1, the dissociation constant (Kd) was about 0.0123 nM. Turning to B2, the Kd was about 0.0137 nM. B3: the Kd was about 0.0028 nM. As to B4, the Kd is about 0.0025 nM.

For B5, the Kd is about 0.0143 nM.

The target in another test is T1, RSV F protein (C-terminal truncated F …). The test is described as follows: ELISA titration of antibody on RSV F antigen, O.D. 560. (In general: ELISA stands for enzyme-linked immunosorbent assay.)
The term EC50 (read off the curve) denotes the concentration giving half of the maximal effect. On to B6, for which the “EC50 (read off the curve)” value was about 0.04 µg/mL. On to B7, for which the “EC50 (read off the curve)” value was about 0.2 µg/mL. On the same count and under the same terms, as for B8, the figure is about 0.03 µg/mL; as for B9, about 0.01 µg/mL. As for B10, the “EC50 (read off the curve)” value was about 0.02 µg/mL.

Another test has the same target. The test is described as follows: ELISA titration of antibody on 500 ng RSV F antigen; qualitative score from titration curves.
B1: the “Ag Score” value came out at 4 arbitrary score 0-4. Same read-out and setting: with B11 the figure was 2 arbitrary score 0-4. For the molecule B12, the “Ag Score” value is 2 arbitrary score 0-4. The same measure, in the same setting: as for B13, the figure is 3 arbitrary score 0-4; as for B6, 2 arbitrary score 0-4.

As for B14, the “Ag Score” value came out at 2 arbitrary score 0-4. As for B7, the “Ag Score” value came to 0.1 arbitrary score 0-4.

With B15, the “Ag Score” value worked out at 3.5 arbitrary score 0-4. Take B16: the “Ag Score” value stood at 2.5 arbitrary score 0-4. Same read-out and setting: as for B17, the figure is 3 arbitrary score 0-4; as for B2, 4 arbitrary score 0-4. As for B18, the “Ag Score” value was determined as 3 arbitrary score 0-4. The same measure, in the same setting: as for B19, the figure is 2.5 arbitrary score 0-4.

Turning to B20, the “Ag Score” value was determined as 2 arbitrary score 0-4.

As to B21, the “Ag Score” value is 2.5 arbitrary score 0-4. B22: the “Ag Score” value was found to be 3 arbitrary score 0-4. As to B23, the “Ag Score” value amounted to 2.5 arbitrary score 0-4.

B9: the “Ag Score” value came to 3.5 arbitrary score 0-4. As to B5, the “Ag Score” value turned out to be 4 arbitrary score 0-4. As to B10, the “Ag Score” value was determined as 3.5 arbitrary score 0-4. Take B24: the “Ag Score” value came out at 2 arbitrary score 0-4.

Another test shares this target. Nature of the test: SPR (BIAcore), F protein immobilized by EDC/NHS, Fab injected; kon and koff measured separately.
What is called koff is the first-order rate constant of dissociation. The kon is a measure of how fast the partners come together. Take B1: the koff came to 1.35e-06 s⁻¹ and the kon came out at 110000 M⁻¹ s⁻¹. As for B2, the koff stood at 1.82e-06 s⁻¹ and the kon was 133000 M⁻¹ s⁻¹. Turning to B3, the koff was 3.7e-07 s⁻¹ and the kon turned out to be 134000 M⁻¹ s⁻¹. On the same counts, the results for B4 are 3.03e-07 s⁻¹ and 122000 M⁻¹ s⁻¹.

As for B5, the koff came to 1.62e-06 s⁻¹ and the kon came out at 113000 M⁻¹ s⁻¹.

Another test shares this target. The test is described as follows: SPR (BIAcore), F protein immobilized by EDC/NHS, Fab injected; calculated from the rate constants.
As to B1, the Ka was 8.15e+10 M⁻¹. Same read-out and setting: with B2 the figure was 7.31e+10 M⁻¹; with B3, 3.62e+11 M⁻¹. The same measure, in the same setting: with B4 the figure was 4.03e+11 M⁻¹; with B5, 6.98e+10 M⁻¹.
